Patent US20230341394A1

Target: CR3022 IgG antibody

Substance | assay signal (TR-FRET ratio) (TR-FRET ratio)
anti-IgG Nanobody (Chromotek Nano-Secondary alpaca anti-human IgG) (VHH) | 0.6
anti-IgG antibody (Bethyl, A80-104A) | 0.25
